# According to IntAct's records for PubMed 21743455:
# B1: Wnt inhibitory factor 1 (Homo sapiens), Q9Y5W5 (parent)
# chain: MARRSAFPAAALWLWSILLCLLALRAEAGPPQEESLYLWIDAHQARVLIGFEEDILIVSEGKMAPFTHDFRKAQQRMPAIPVNIHSMNFTWQAAGQAEYFYEFLSLRSLDKGIMADPTVNVPLLGTVPHKASVVQVGFPCLGKQDGVAAFEVDVIVMNSEGNTILQTPQNAIFFKTCQQAECPGGCRNGGFCNERRICECPDGFHGPHCEKALCTPRCMNGGLCVTPGFCICPPGFYGVNCDKANCSTTCFNGGTCFYPGKCICPPGLEGEQCEISKCPQPCRNGGKCIGKSKCKCSKGYQGDLCSKPVCEPGCGAHGTCHEPNKCQCQEGWHGRHCNKRYEASLIHALRPAGAQLRQHTPSLKKAEERRDPPESNYIW
# Variants of: B1
# Conditions: with wnt3a_mouse Wnt3a
row,effect of a mutation on the interaction,Variant
1,decreasing interaction,M77W
